Measured values reported in US20070082002A1 (IDEC PHARMACEUTICALS, published 2007).

Legend:
[1] = target: F-protein of RSV 18537 (Type B) (respiratory syncytial virus, strain …, UniProt P13843 26-574); assay: cell-based or functional assay
[2] = target: F-protein of RSV RS Long (Type A prototype) in infected VERO cells (respiratory syncytial virus, Long …, UniProt P12568 26-574); assay: cell-based or functional assay
[3] = target: F-protein of RSV RS 6556 (Type B clinical isolate) in infected VERO cells (respiratory syncytial virus, RS 6556 …); assay: cell-based or functional assay
[4] = target: F-protein of RSV MR 144 (Type A) (respiratory syncytial virus, MR 144 …); assay: cell-based or functional assay
[5] = target: T1, RSV fusion (F) protein, affinity purified from HEp-2 cells infected with the Long strain of RSV (respiratory syncytial virus, Long …, UniProt P12568 26-109; P12568 137-574); assay: titration micro calorimetry, RF-2 and F-protein in solution
T1 construct: mature; also called RSV F-protein; soluble F-protein
T1 sequence (P12568 26-109, chain 1 of 2): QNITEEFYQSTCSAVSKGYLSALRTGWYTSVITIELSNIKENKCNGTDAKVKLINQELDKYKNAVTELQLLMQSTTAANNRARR
T1 sequence (P12568 137-574, chain 2 of 2): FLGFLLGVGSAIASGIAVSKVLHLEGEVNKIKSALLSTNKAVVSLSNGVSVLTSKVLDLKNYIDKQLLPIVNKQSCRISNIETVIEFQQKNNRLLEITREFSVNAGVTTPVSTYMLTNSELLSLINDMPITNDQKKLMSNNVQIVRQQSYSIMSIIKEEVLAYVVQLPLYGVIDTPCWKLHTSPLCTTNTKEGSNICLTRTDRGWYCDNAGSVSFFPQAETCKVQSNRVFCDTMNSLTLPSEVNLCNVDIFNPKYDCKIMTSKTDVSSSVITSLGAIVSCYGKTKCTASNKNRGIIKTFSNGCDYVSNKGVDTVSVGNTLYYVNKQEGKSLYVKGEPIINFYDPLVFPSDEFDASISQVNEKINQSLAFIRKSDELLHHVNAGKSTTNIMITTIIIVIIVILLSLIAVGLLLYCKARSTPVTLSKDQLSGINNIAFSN

[6] = target: T1, RSV fusion (F) protein, affinity …; assay: ELISA, plate coated with purified F-protein, GAH IgG-HRP detection
[7] = target: T1, RSV fusion (F) protein, affinity …; assay: plasmon resonance on an IASYS machine, antibody bound covalently, F-protein in solution

F-protein of RSV 18537 (Type B), sequence (P13843 26-574): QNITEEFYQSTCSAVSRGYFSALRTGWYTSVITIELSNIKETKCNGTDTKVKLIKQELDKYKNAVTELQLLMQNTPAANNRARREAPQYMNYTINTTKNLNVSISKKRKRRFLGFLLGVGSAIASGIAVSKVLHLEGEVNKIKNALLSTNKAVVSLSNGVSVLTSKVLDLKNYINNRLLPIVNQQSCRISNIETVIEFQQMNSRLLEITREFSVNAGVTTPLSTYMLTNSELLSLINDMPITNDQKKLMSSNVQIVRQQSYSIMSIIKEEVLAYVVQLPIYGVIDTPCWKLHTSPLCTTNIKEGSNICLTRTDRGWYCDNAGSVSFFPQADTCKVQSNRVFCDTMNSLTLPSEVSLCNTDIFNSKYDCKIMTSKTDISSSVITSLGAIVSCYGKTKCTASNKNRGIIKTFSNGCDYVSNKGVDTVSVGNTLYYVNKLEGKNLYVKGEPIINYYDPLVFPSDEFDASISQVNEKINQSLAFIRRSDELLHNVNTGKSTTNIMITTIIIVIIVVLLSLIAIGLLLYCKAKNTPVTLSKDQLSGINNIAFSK
F-protein of RSV RS Long (Type A prototype) in infected VERO cells, sequence (P12568 26-574): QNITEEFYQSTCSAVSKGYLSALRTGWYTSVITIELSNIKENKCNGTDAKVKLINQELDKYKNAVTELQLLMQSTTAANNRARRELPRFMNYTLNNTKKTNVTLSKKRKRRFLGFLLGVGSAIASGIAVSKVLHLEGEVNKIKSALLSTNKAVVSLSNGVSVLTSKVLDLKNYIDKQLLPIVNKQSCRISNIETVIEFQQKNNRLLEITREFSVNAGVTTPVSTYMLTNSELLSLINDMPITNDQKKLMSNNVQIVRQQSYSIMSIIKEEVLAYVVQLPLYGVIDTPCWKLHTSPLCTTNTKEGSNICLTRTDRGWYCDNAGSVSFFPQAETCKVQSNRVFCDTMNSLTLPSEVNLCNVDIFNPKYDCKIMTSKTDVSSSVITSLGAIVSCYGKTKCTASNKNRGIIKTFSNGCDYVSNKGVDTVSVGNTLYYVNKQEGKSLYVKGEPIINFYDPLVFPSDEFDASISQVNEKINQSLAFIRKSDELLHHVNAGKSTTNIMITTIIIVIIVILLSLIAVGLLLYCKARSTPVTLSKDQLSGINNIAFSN

| Binder | Infection Neutralization Activity ED50 titer [1] | Fusion Inhibition activity ED50 titer [2] | Fusion Inhibition activity ED50 titer [3] | Infection Neutralization Activity ED50 titer [4] | Kd [5] | EC50 [6] | Kd [7] |
| --- | --- | --- | --- | --- | --- | --- | --- |
| RF-2 human monoclonal antibody to RSV F-protein (antibody, human IgG1, V domains shown, Tested as natural human IgG1 kappa, protein A purified from supernatant of the tumor cell line from hu-SPL-SCID mouse #15; The early preparation held at least two antibody populations) VH: QVQLQESGPALVKPTQTLTLTCTFSGFSLSTRGMSVNWIRQPPGKALEWLARIDWDDDTFYSASLKTRLSISKDTSKNQVVLRMTNVDPVDTATYFCARASLYDSDSFYLFYHAYWGQGTVVTVSS VL: DIQMTQSPSSLSASVGDRVTITCRASQSIASYVNWYQQKPGKAPKVLIFASANLVSGVPSRFSGSGSGTVFTLTISNLQPEDFATYFCQQSYTNFSFGQGTKLEIK | 0.012 µg/mL | 3.3 µg/mL | 0.4 µg/mL | 0.008 µg/mL | 2 nM | 0.001 µg/mL | – |
| RF-1 human monoclonal antibody to RSV F-protein (antibody, human IgG1, V domains shown, Tested as natural human IgG1 kappa, protein A purified from supernatant of the EBV-positive tumor cell line from hu-SPL-SCID mouse #6) VH: QVQLQESGPVVVKPTETLTLTCTVSGFSLSNPRMGVTWIRQPPGKALEWLGNIFSSDEKSFSPSLKSRLTTSQDTSRSQVVLSLTNVDPVDTATYYCARVGLYDINAYYLYYLDYWGQGTLVTVSS VL: DIQMTQSPSSLSASVGDRVTITCRAGQRIASYLNWYQHKPGKAPKLLIYAGSNLHRGVPSRFSGGGSGTDFTLTINSLQPEDFATYYCQQAYSTPWTFGPGTKVEIK | 0.03 µg/mL | 0.66 µg/mL | 0.04 µg/mL | 0.03 µg/mL | – | 0.0006 µg/mL | ~0.1 nM |
